Test results reported in patent US20260097113A1 (Pfizer, published 2026).

T1: RSV F protein of subtype A comprising a polypeptide of SEQ ID NO: 1 and a polypeptide of SEQ ID NO: 2 (RSV subtype A, UniProt P11209 137-513; P03420 26-109)
T1 construct: Stabilized prefusion F trimer made of three F2-F1 heterodimers; Produced recombinantly in CHO cells; also called RSV A; RSVA
T1 chain 1: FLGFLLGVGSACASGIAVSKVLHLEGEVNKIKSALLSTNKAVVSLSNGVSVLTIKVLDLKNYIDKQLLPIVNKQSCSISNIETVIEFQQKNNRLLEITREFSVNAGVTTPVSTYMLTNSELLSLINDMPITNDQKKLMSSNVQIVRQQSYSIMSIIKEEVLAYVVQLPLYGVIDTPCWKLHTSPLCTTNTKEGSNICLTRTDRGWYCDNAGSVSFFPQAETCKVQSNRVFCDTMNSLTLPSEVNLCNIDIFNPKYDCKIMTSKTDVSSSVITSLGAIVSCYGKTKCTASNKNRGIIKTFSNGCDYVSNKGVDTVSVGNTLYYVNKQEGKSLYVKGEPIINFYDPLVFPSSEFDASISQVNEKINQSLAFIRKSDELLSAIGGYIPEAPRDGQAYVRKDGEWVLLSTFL
T1 chain 2: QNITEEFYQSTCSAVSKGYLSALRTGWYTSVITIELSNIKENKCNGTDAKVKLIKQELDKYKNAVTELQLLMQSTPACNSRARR


Assays:
[1] = target: RSV A + RSV B bivalent composition (RSV subtype A; RSV subtype B); test: AM14 Fab titration by SEC; High-Slow 2 cycle; 3 M 40°C
[2] = target: RSV A + RSV B bivalent composition (RSV subtype A; RSV subtype B); test: AM14 Fab titration by SEC; Low-Fast cycle; 3 M 40°C (second value)
[3] = target: RSV A + RSV B bivalent composition (RSV subtype A; RSV subtype B); test: AM14 Fab titration by SEC; Low-Fast cycle; 8 M 40°C
[4] = target: RSV A + RSV B bivalent composition (RSV subtype A; RSV subtype B); test: AM14 Fab titration by SEC; Target cycle; 1 M 25°C (second value)
[5] = target: RSV A + RSV B bivalent composition (RSV subtype A; RSV subtype B); test: AM14 Fab titration by SEC; Low-Fast cycle; 3 M 40°C
[6] = target: RSV A + RSV B bivalent composition (RSV subtype A; RSV subtype B); test: AM14 Fab titration by SEC; Target cycle; T0
[7] = target: RSV A + RSV B bivalent composition (RSV subtype A; RSV subtype B); test: AM14 Fab titration by SEC; High-Slow 2 cycle; T0 (second value)
[8] = target: T1, RSV F protein of subtype A comprising a …; test: AM14 ELISA; F2 (pH 8, 0 mM NaCl, 0% sucrose); 1 wk 25°C
[9] = target: T1, RSV F protein of subtype A comprising a …; test: AM14 ELISA; F7 (pH 6, 100 mM NaCl, 0% sucrose); T0
[10] = target: T1, RSV F protein of subtype A comprising a …; test: AM14 ELISA; F13 (pH 7, 100 mM NaCl, 4.5% sucrose); T0
[11] = target: T1, RSV F protein of subtype A comprising a …; test: AM14 ELISA; F18 (pH 7, 50 mM NaCl, 3% sucrose + 3% mannitol); 2 wk 5°C
[12] = target: T1, RSV F protein of subtype A comprising a …; test: AM14 ELISA; F17 (pH 7, 50 mM NaCl, 4.5% trehalose); 2 wk 25°C
[13] = target: T1, RSV F protein of subtype A comprising a …; test: AM14 ELISA; F16 (pH 6, 0 mM NaCl, 0% sucrose); 2 wk 5°C
[14] = target: T1, RSV F protein of subtype A comprising a …; test: AM14 ELISA; F16 (pH 6, 0 mM NaCl, 0% sucrose); T0
[15] = target: T1, RSV F protein of subtype A comprising a …; test: AM14 ELISA; F13 (pH 7, 100 mM NaCl, 4.5% sucrose); 1 wk 5°C
[16] = target: T1, RSV F protein of subtype A comprising a …; test: AM14 ELISA; F12 (pH 8, 100 mM NaCl, 9.0% sucrose); 2 wk 5°C
[17] = target: T1, RSV F protein of subtype A comprising a …; test: AM14 ELISA; F17 (pH 7, 50 mM NaCl, 4.5% trehalose); 1 wk 5°C
[18] = target: T1, RSV F protein of subtype A comprising a …; test: AM14 ELISA; F1 (pH 8, 100 mM NaCl, 0% sucrose); 2 wk 5°C

Molecule	Prefusion Content (%) [1] [%]	Prefusion Content (%) [2] [%]	Prefusion Content (%) [3] [%]	Prefusion Content (%) [4] [%]	Prefusion Content (%) [5] [%]	Prefusion Content (%) [6] [%]	Prefusion Content (%) [7] [%]	AM14 prefusion content (%), relative to standard [8] [%]	AM14 prefusion content (%), relative to standard [9] [%]	AM14 prefusion content (%), relative to standard [10] [%]	AM14 prefusion content (%), relative to standard [11] [%]	AM14 prefusion content (%), relative to standard [12] [%]	AM14 prefusion content (%), relative to standard [13] [%]	AM14 prefusion content (%), relative to standard [14] [%]	AM14 prefusion content (%), relative to standard [15] [%]	AM14 prefusion content (%), relative to standard [16] [%]	AM14 prefusion content (%), relative to standard [17] [%]	AM14 prefusion content (%), relative to standard [18] [%]
AM14 Fab	59	66	63	65	70	68	73											
AM14 (trimeric prefusion specific antibody of the AM14 ELISA) (antibody, V domains shown, Antibody as used in the AM14 ELISA, detected with an HRP-labeled secondary antibody) VH: EVQLVESGGGVVQPGRSLRLSCAASGFSFSHYAMHWVRQAPGKGLEWVAVISYDGENTYYADSVKGRFSISRDNSKNTVSLQMNSLRPEDTALYYCARDRIVDDYYYYGMDVWGQGATVTVSS VL: DIQMTQSPSSLSASVGDRVTITCQASQDIKKYLNWYHQKPGKVPELLMHDASNLETGVPSRFSGRGSGTDFTLTISSLQPEDIGTYYCQQYDNLPPLTFGGGTKVEIKR								58	88	97	85	64	67	80	76	72	59	100
